# Measured values published in patent US20240209088A1 (NMI NATURWISSENSCHAFTLICHES UND MEDIZINISCHES INSTITUT AN …, published 2024).
# Positions count from the first letter of the chain named.
# B1: CD4-Nb5 (VHH)
# VHH: EVQLQESGGGLVQAGGSLRLSCKVSGRTFGTYAMGWFRQAPGKEREFVAVISWIKGNTYVADSVLGRFTISRDNARNWLHLQMYSLKPEDTATYYCAASSTVTLPTTLDPYTYWGQGTPVTVSS
# notes: Unlabeled; excluded from further analyses after the live-cell staining
# B2: CD4-Nb4 (VHH)
# VHH: EVQLQESGGALAQPGGSLRLSCAVSGFTFGTYGMGWLRQAPGKGREFVAAINWIHGGEIYADSVKGRFTISKDNAKNTLYLQMDSLKPEDTAVYYCAARSGTSLYTGVDEYQYWGQGTQVTVSS
# notes: Unlabeled, expressed in E. coli
# B3: CD4-Nb2 (VHH)
# VHH: EVQLVESGGGSVQPGGSLRLSCGASGFDVDYYAIGWFRQAPGKEREGVSCIASSDGSTYYADSVKGRFTISRDNAKNTVYLQMNSLKPEDTAVYYCAADATCPYYCSGSVCYLETGMDYWGEGTLVTVSS
# notes: as for B2
# B4: mutant CD4-Nb1 (all lysine residues replaced with arginine residues) (VHH)
# VHH: EVQLVESGGGLVQPGGSLRLSCAASGFTFSRLAMSWHREPPGRGREWLADIDSSGDTTDYLASVRGRFTISRDNARNTLYLQMDSLRSEDTGVYYCASREDPPGYWGQGTQVTVSS
# notes: Expressed in bacteria; also called mutant nanobody; mutant version of the nanobody
# B5: CD4-Nb1 (VHH)
# VHH: B4 VHH with R31K, R43K, R65K, R76K, R87K
# notes: Unlabeled, expressed in E. coli; also called non-mutated CD4-Nb1
# B6: ^64Cu-CD4-Nb1 (VHH)
# VHH: B4 VHH with R31K, R43K, R65K, R76K, R87K
# modifications: azide-coupled C-terminus reacted with BCN-NODAGA and radiolabeled with 64Cu
# notes: also called ^64Cu-hCD4-Nb1
# B7: CD4-Nb1-Cy5.5 (VHH)
# VHH: B4 VHH with R31K, R43K, R65K, R76K, R87K
# modifications: C-terminus sortase-coupled to H-Gly-Gly-Gly-propyl-azide, then click-labeled with DBCO-Cy5.5
# notes: also called hCD4-Nb1-Cy5.5; Cy5.5-labeled CD4-Nb1
# B8: CD4-Nb1 sortase-coupled to the fluorescent dye CF568 (VHH)
# VHH: B4 VHH with R31K, R43K, R65K, R76K, R87K
# modifications: C-terminus sortase-coupled to the CF568-coupled peptide H-Gly-Gly-Gly-Doa-Lys-NH2 (labeling ratio 1:1)
# notes: also called CF568-labeled CD4-Nb1; CD4-Nbs-CF568
# B9: CD4-Nb3 (VHH)
# VHH: HVQLVESGGGLVQPGGSLRLSCAVSGFALEYYAIGWFRQAPGKERERVACMSASGGVINYSESVKGRFTISRDNAKNTVYLQMNTLKPEDTAVYYCAAEKAYYGSSWAECYLMMDYWGKGTLVTVSS
# notes: as for B2
# Columns and labels:
# [1] = biological target: T1, full-length human CD4 on cells (human, UniProt P01730 26-458); experiment: live-cell immunofluorescence of CHO-hCD4 cells, unlabeled Nb detected with anti-VHH Cy5 secondary antibody
# T1 construct: whole, on cells; Stably expressed (CHO-hCD4, HEK293-hCD4) or endogenous (PBMCs, human CD4+ cells from blood, HPB-ALL, T cell lines); also called hCD4; cell-resident hCD4
# [2] = biological target: T1, full-length human CD4 on cells; experiment: flow cytometry, percentage of positively stained hCD4-expressing cells against Nb concentration, four-parametric sigmoidal model; the curve rises only to about 3 % at the highest concentration near 10^-4.5 M
# [3] = biological target: T1, full-length human CD4 on cells; experiment: flow cytometry on cells expressing hCD4
# Protocol: (§1) (E) EC₅₀ determination by flow cytometry.
# (§2) For each staining condition 200,000 cells were incubated with suitable dilution series of CD4 nanobodies at 4° C. for 30 min. Cells were washed two times and for detection Cy5 AffiniPure Goat Anti-Alpaca IgG, VHH domain (Jackson ImmunoResearch) was applied for 15 min. […] Final data analysis was performed via FloJo10® software.
# [4] = biological target: T2, recombinant extracellular portion of human CD4 (domains D1-4) (human, UniProt P01730 26-396, for BLI biotinylated with 3-fold molar excess of biotin-N-hydroxysuccinimide ester; not biotinylated in HDX-MS); experiment: BLI, biotinylated extracellular domain of hCD4 on streptavidin sensor, serial dilutions of Nb
# T2 construct: extracellular domain; also called recombinant hCD4; extracellular domain of hCD4
# Protocol: (§3) To determine the binding affinity of purified Nbs to recombinant hCD4, biolayer interferometry (BLItz, ForteBio) was performed. First, CD4 was biotinylated by 3-fold molar excess of biotin-N-hydroxysuccinimide ester. CD4 was then immobilized at single-use high-precision streptavidin biosensors (SAX) according to manufacturer's protocols. […] As a reference run, PBS was used instead of Nb in the association step. […] Recorded sensograms were analyzed using the BLItzPro software and dissociation constants (KD) were calculated based on global fits.
# (§4) To quantitatively assess affinities, biolayer interferometry (BLI) measuring serial dilutions of Nbs were performed on the biotinylated extracellular domain of hCD4 immobilized at the sensor tip.
# [5] = biological target: T2, recombinant extracellular portion of …; experiment: biolayer interferometry, biotinylated hCD4 immobilized on streptavidin biosensors
# Protocol: (§5) (D) For biolayer interferometry-based affinity measurements, biotinylated hCD4 was immobilized on streptavidin biosensors.
# as §3
# [6] = biological target: T1, full-length human CD4 on cells; experiment: flow cytometry, percentage of positively stained hCD4-expressing cells against Nb concentration, four-parametric sigmoidal model
# [7] = biological target: T1, full-length human CD4 on cells; experiment: flow cytometry on HEK293-hCD4 cells, detection with anti-VHH Cy5 antibody
# Protocol: For each staining condition 200,000 cells were incubated with suitable dilution series of CD4 nanobodies at 4° C. for 30 min. Cells were washed two times and for detection Cy5 AffiniPure Goat Anti-Alpaca IgG, VHH domain (Jackson ImmunoResearch) was applied for 15 min. […] After two washing steps, samples were resuspended in 200 μl FACS buffer and analyzed with a BD FACSMelody Cell Sorter. Final data analysis was performed via FloJo10® software.
# In addition, corresponding EC50 values were determined with full-length plasma membrane-located hCD4 on HEK293-hCD4 cells by flow cytometry.
# [8] = biological target: T2, recombinant extracellular portion of …; experiment: biolayer interferometry, biotinylated hCD4 immobilized on streptavidin biosensors; box in the panel prints [CD4_Nb1]: 15.625-125 nM
# Protocol: as §3
# [9] = biological target: T2, recombinant extracellular portion of …; experiment: BLI (affinity constants predetermined by BLI analysis)
# Protocol: as §3
# [10] = biological target: T2, recombinant extracellular portion of …; experiment: BLI
# [11] = biological target: T2, recombinant extracellular portion of …; experiment: biolayer interferometry on human CD4; the sheet prints Conc: 0.625 - 5 nM, four sensorgrams up to about 0.17 nm
# [12] = biological target: T2, recombinant extracellular portion of …; experiment: BLI, biotinylated extracellular domain of hCD4 on streptavidin sensor, serial dilutions of Nb; BLI on biotinylated extracellular domain of hCD4 at the sensor tip
# Protocol: as §3, §4
# [13] = biological target: T1, full-length human CD4 on cells; experiment: flow cytometry, percentage of positively stained hCD4-expressing cells against Nb concentration; the subscript is redrawn as 56, EC50 by the legend paragraph 99
# Protocol: as §1, §2
# [14] = biological target: T1, full-length human CD4 on cells; experiment: flow cytometry on HEK293-hCD4 cells, detection with anti-VHH Cy5 antibody; flow cytometry, full-length hCD4 on HEK293-hCD4 cells
# [15] = biological target: T2, recombinant extracellular portion of …; experiment: biolayer interferometry, biotinylated hCD4 immobilized on streptavidin biosensors, four Nb concentrations; the subscript is redrawn as O, KD by the legend paragraph 99
# Protocol: as §5, §3
# [16] = biological target: T1, full-length human CD4 on cells; experiment: in vitro radioimmunoassay on HPB-ALL cells (data not shown)
# [17] = biological target: T3, murine CD4 on mouse CD4+ cells (mouse, UniProt P06332 27-457); experiment: flow cytometry of mouse CD4+ cells from spleen and lymph nodes
# T3 construct: whole, on cells; also called murine CD4+ lymphocytes
# T3 sequence (looked up): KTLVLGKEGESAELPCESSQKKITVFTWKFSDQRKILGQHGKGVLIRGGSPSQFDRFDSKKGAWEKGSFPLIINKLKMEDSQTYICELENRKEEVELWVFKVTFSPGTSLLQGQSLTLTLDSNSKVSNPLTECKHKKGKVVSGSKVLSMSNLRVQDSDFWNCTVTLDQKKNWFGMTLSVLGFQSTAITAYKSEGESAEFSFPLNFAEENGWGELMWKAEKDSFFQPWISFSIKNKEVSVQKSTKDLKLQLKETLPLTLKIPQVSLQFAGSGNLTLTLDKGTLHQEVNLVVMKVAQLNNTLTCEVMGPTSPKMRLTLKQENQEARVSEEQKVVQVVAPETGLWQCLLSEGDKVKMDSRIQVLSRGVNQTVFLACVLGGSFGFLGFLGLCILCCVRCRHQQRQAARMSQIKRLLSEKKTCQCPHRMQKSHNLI
# [18] = biological target: T4, hCD4 domain-deletion mutant lacking domain D1 (CD4_ΔD1) (human, UniProt P01730 26-458); experiment: live-cell immunofluorescence of CHO cells transiently expressing the domain-deletion mutant, CF568-labeled Nb
# T4 construct: whole, on cells; Transiently expressed in CHO wt cells; also called pcDNA3.1_CD4_ΔD1_IRES-eGFP
# [19] = biological target: T5, hCD4 domain-deletion mutant lacking domains D1 and D2 (CD4_ΔD1ΔD2) (human, UniProt P01730 26-458); experiment: as above
# T5 construct: whole, on cells; Transiently expressed in CHO wt cells; also called pcDNA3.1_CD4_ΔD1ΔD2_IRES-eGFP
Binder,EC50 [3],Kd [4],koff [5],kon [5],Kd [9],also measured
B1,,,,,,binding result [1]: no binding (tested: not printed on the sheet)
B2,7360 nM,135 nM,0.016 s⁻¹,118000 M⁻¹ s⁻¹,,EC50 [2]: 7360 nM
B3,0.73 nM,~7 nM,0.000795 s⁻¹,122000 M⁻¹ s⁻¹,6.5 nM,EC50 [6]: 0.73 nM; EC50 [7]: ~0.7 nM; Kd [8]: 6.53 nM
B4,,,,,,Kd [10]: ~1 nM; Kd [11]: 1 nM
B5,0.74 nM,,0.000613 s⁻¹,121000 M⁻¹ s⁻¹,5.1 nM,Kd [12]: ~5 nM; EC50 [13]: 0.74 nM; EC50 [14]: ~0.7 nM; Kd [15]: 5.09 nM
B6,,,,,,fold over the non-specific binding to CD4-negative DHL cells or of the 64Cu-GFP-Nb control [16]: ~30 times
B7,,,,,,binding result [17]: no binding
B8,,,,,,binding result [18]: no binding (tested: not printed on the sheet); binding result [19]: no binding (tested: not printed on the sheet)
B9,533 nM,75 nM,0.00618 s⁻¹,82000 M⁻¹ s⁻¹,75.3 nM,EC50 [6]: 533 nM
